Test results from patent US7626003B2, “Genetically engineered cDNA of rat bcl-x gene and an improved protein” (priority 1999, dated 2009).

Key:
[1] = system: human leukemia cell line Jurkat; test: Resistance of Jurkat transfectants to anti-Fas antibody (trypan blue exclusion); assay type: cell-based; conditions: anti-Fas antibody CH-11 1-1000 ng/ml, 1 day (FIG. 4)
Procedure: The results are shown in FIG. 4, wherein the number of the cells incubated without the antibody was taken as 100%.

[2] = system: human leukemia cell line Jurkat
Procedure: For the transfected Jurkatbcl-xFNK cells prepared in Example 2, the resistance (non-sensitivity) to a variety of apoptosis-inducing stimuli was examined.
The cells were suspended in RPMI1640 medium at 1×10^5 cells/ml, to which staurosporine (20 nM), TN-16 (10 μM), camptothecin (10 μM), hydroxyurea (1 mM), trichostatin A (0.25 μg/ml), hydrogen peroxide (0.05 mM), or paraquat (1 mM) was then added. And the cells were incubated. The surviving cells were counted by the trypan blue exclusion everyday.

[3] = system: murine premyeloid cell line FDC-P1; test: Resistance of FDC-P1 transfectants to TN-16 and staurosporine (WST-1 assay); assay type: cell-based; conditions: TN-16 50 μM
Procedure: (§1) For the transfectant FDC-P1bcl-xFNK cells prepared in Example 2, the resistance was examined to a variety of apoptosis-inducing stimuli. In these figures, the empty marks, ⋄, □, Δ, ∇, and ◯ represent 5 independent transfectants, FDC-P1bcl-xFNK-1, -2, -3, -4, and -5, respectively. […] The mark ▪ represents FDC-P1vec in which the empty vector plasmid DNA has been introduced.
The cells were suspended in culture medium at 2×10^5 cells/ml, to which TN-16 (50 μM) and staurosporine (10 nM) was then added. The dehydrogenase activity of the cells (100 μl of the culture broth) was determined daily using the Cell Counting Kit (Dojin Chemical) and WST-1 as a substrate (WST-1 Assay). The enzyme activity was taken as 100% immediately before addition of the agents.

[4] = system: murine premyeloid cell line FDC-P1; test: Resistance of FDC-P1 transfectants to apoptosis induced by depletion of the cytokine IL-3; assay type: cell-based
Text: as §1
The result are shown in FIG. 16, in which the number of the surviving cells immediately after depletion of IL-3 was taken as 100%. In this experiment, the cells other than FDC-P1vec were diluted 5 times with the fresh medium containing no IL-3 every 3rd day.

[5] = system: human leukemia cell line Jurkat; test: Resistance of Jurkat transfectants to heat treatment (trypan blue exclusion); assay type: cell-based; conditions: 45° C. for 10 minutes (FIG. 12)
[6] = system: human leukemia cell line Jurkat; test: Dehydrogenase activity of Jurkat transfectants after heat treatment (WST-1 assay); assay type: cell-based; conditions: 45° C. for 10 minutes, 1st day (FIG. 13)
Procedure: The cells were harvest by centrifugation, then suspended in an equal amount of the fresh culture medium, and incubated at 37° C. In addition, dehydrogenase activities of the cells (100 μl of the culture broth) were determined at 1st day using the Cell Counting Kit (Dojin Chemical) and WST-1 as a substrate (WST-1 Assay). The results are shown in FIG. 13, wherein the enzyme activity of the cells without heat treatment was taken as 100%.

[7] = system: human leukemia cell line Jurkat; test: Resistance of Jurkat transfectants to apoptosis induced by serum withdrawal (trypan blue exclusion); assay type: cell-based; conditions: serum-free RPMI1640, surviving cells counted daily (FIG. 3)
Procedure: The cells were washed 3 times with PBS and suspended in RPMI1640 medium containing no serum at 1×10^5 cells/ml. […] The number of the cells was carefully controlled to be less than 5×10^5 cells/ml. When the cell number was expected to exceed the limitation, the culture medium was diluted 2 fold. Every 3 days, the half of the serum-free medium was replaced with the fresh medium.

[8] = system: Chinese hamster ovary cell CHO; test: Incubation of CHO transfectants in serum-free medium; assay type: cell-based
Procedure: The CHO cells (1×10^5 cells) were suspended in culture medium DMEM/F-12 (GIBCO BRL) containing 10% fetal bovine serum, and incubated in a 60-mm dish overnight. The linearized pEF1-BOSbcl-xY22F/Q26N/R165K (10 μg) and the linearized pST-neoB (0.5 μg) having a drug Geneticin-resistant gene were introduced into the CHO cells using a SuperFect Transfection Reagent kit (Qiagen). As a control, the linearized empty vector pEF1-BOS or the linearized pEF1-BOSbcl-x were introduced together with the linearized pST-neoB into the CHO cells. After the transfection treatment, the cells were incubated in culture medium DMEM/F-12 containing 10% fetal bovine serum overnight. Geneticin (700 μg/ml) was added, and the incubation was continued to yield the transfected cells. In the same manner as in Example 3, the transfectants expressing the improved protein Bcl-xFNK or the wild-type Bcl-xL abundantly and to the same level were selected. Thus, CHObcl-x, CHObcl-xFNK, and CHOvec (transfected with the empty vector) were obtained.
Three transfectants, CHObcl-x, CHObcl-xFNK, and CHOvec, prepared in Example 6 were incubated in culture medium DMEM/F-12 containing 10% fetal bovine serum. The cells (1×10^3 cells) were plated in a 100-mm dish containing the medium DMEM/F-12 containing 3% fetal bovine serum. […]

HeLa cells = test: Incorporation of TAT-Bcl-xFNK protein in cells (immunofluorescence); assay type: cell-based; conditions: 1 μM in medium, 24 hours, FITC immunofluorescence (FIG. 18)
Procedure: TAT-Bcl-xFNK protein (1 μM) was added to DMEM/F-12 (Life Technologies) containing 10% FBS (fetal bovine serum), a medium for HeLa cells cultured in a Slide Chamber (Lab-Tek), and the cells were incubated in a CO2 incubator for 24 hours. The cells were then washed twice with PBS. The cells were fixed with paraformaldehyde (4%) dissolved in PBS at room temperature for 45 min. The cells were washed 3 times with PBS (5 minutes/round), and incubated in PBS containing 10% FBS for 20 min. The cells were washed 3 times with PBS (5 minutes/round), and treated with 1.5% FBS-PBS solution containing an anti-rat Bcl-xL monoclonal antibody 35-32 (murine origin) for 30 min. The cells were washed 3 times with PBS (5 minutes/round), and treated with 1.5% FBS-PBS solution containing an anti-mouse IgG antibody conjugated with FITC, for 30 minutes. The cells were washed 3 times with PBS (5 minutes/round), mounted in PBS, and sealed to observe under a fluorescence microscope.

hepatocytes = test: Inhibition of the death of hepatocytes caused by steroid hormone (dexamethasone) in mice; assay type: in vivo; conditions: mouse, 100 μg intraperitoneal 3 hours before 0.5 mg dexamethasone i.p., liver sections 3 hours later (FIGS. 25-27)
Procedure: Three 8-week old mice ([…], 20 g body weight, female) were divided into 3 groups (A, B and C). To the mouse of Group A was intraperitonealy administered PBS solution (0.8 ml) containing 100 μg of TAT-Bcl-xFNK protein (prepared from the soluble fraction). To the mice of Group B and Group C (control) was intraperitonealy administered PBS (0.8 ml) in the same manner. The mice were put back into cages, and after a lapse of 3 hours 0.5 ml of 25% ethanol/PBS solution containing 0.5 mg of a steroid hormone (dexamethasone) was intraperitonealy administered to the mice of Group A and Group B. To the mouse of Group C was intraperitonealy administered 0.5 ml of 25% ethanol/PBS solution. They were put back into cages, and after a lapse of 3 hours killed. Their livers were taken out, and frozen to prepare frozen sections with a cryostat. The sections were stained with hematoxylin-eosin to evaluate the death of hepatocyte.

[9] = system: chondrocyte of cartilage slice from Osteoarthritis patients; test: Cell death-inhibiting activity in chondrocytes of cartilage slice culture; assay type: cell-based, human; conditions: 0.2 μM in culture medium, up to day 9, hematoxylin-eosin (FIGS. 19-24)
Procedure: Cartilage was obtained from the femoral bone head of Osteoarthritis patients undergoing total hip arthroplasty. The cartilage tissue above the subchondral bone (10×10 mm; 1.2 mm in thickness) was aseptically sliced using a single-edged razor. The cartilage slice was placed in a 24-well plate and incubated with a DMEM/Ham F-12 mixed medium (Life Technologies) containing 20% FBS (fetal bovine serum) at 37° C. in a CO2 incubator. For a comparative experiment, the expression vector of TAT-Bcl-xL was constructed in the same manner as TAT-Bcl-xFNK, and TAT-Bcl-xL protein was partially purified from Escherichia coli (TAT-Bcl-xL preparation has the same purity). TAT-Bcl-xFNK (prepared from the inclusion body) or TAT-Bcl-xL (prepared from the inclusion body) were added to the culture medium at a concentration of 0.2 μM. As a control, an equal amount of PBS (a solvent used to solubilize the proteins) containing 7M urea and 1 mM DTT was added. The culture medium containing the protein was changed on day 4 and day 7. After incubation for 4 days and 9 days, the cartilage slice was frozen to prepare frozen sections using a cryostat. The sections were stained with hematoxylin-eosin to evaluate the death of chondrocyte.

| Molecule | resistance of transfected cells to anti-Fas antibody [1] | resistance of transfected cells to cytotoxic drugs [2] | resistance of transfected cells to TN-16 and staurosporine ([3]; FDC-P1 transfectants (5 independent), staurosporine 10 nM (FIGS. 14, 15)) | dehydrogenase activity under TN-16 and staurosporine (WST-1) ([3]; FDC-P1 transfectants, staurosporine 10 nM, daily) | growth in the absence of IL-3 ([4]; medium without IL-3) | resistance to apoptosis induced by depletion of IL-3 ([4]; medium without IL-3 but with serum (FIG. 16)) | resistance of transfected cells to heat treatment [5] | dehydrogenase activity after heat treatment (WST-1) [6] | survival of transfected cells after serum withdrawal [7] | growth of transfected CHO cells in serum-free medium ([8]; DMEM/F-12 lacking serum from day 6, another 6 days (FIG. 17)) | dying or dead cells in colonies in serum-free medium ([8]; compared with CHObcl-x expressing Bcl-xL (FIG. 17)) | incorporation of the protein into cells (HeLa cells) | inhibition of degeneration of hepatic tissue and cell death caused by dexamethasone (hepatocytes) | inhibition of the death of chondrocyte [9] |
| --- | --- | --- | --- | --- | --- | --- | --- | --- | --- | --- | --- | --- | --- | --- |
| Bcl-xFNK: improved protein of rat Bcl-xL, SEQ ID NO: 3, with substitutions Tyr22Phe; Gln26Asn; Arg165Lys (protein, Artificial Sequence Modified Protein of SEQ ID NO 2, Gln26Asn; Arg165Lys) MSQSNRELVVDFLSYKLSQKGFSWSNFSDVEENRTEAPEETEPERETPSAINGNPSWHLADSPAVNGATGHSSSLDAREVIPMAAVKQALREAGDEFELRYRRAFSDLTSQLHITPGTAYQSFEQVVNELFRDGVNWGRIVAFFSFGGALCVESVDKEMQVLVSKIASWMATYLNDHLEPWIQENGGWDTFVDLYGNNAAAESRKGQERFNRWFLTGMTVAGVVLLGSLFSRK | high resistance to the highly concentrated anti-Fas antibody | high resistance to all of the cytotoxic drugs tested | high resistance to treatment with TN-16 and staurosporine | maintained at high level | could grow even in the absence of IL-3 | higher resistance than the transfectant expressing the wild-type Bcl-xL | high resistance to heat treatment | maintained at high level even after heat treatment | survived for a longer period than the wild-type Bcl-xL-expressing cells | grew far better than CHOvec | fewer cells were dying or dead | – | – | – |
| TAT-Bcl-xFNK: Bcl-xFNK in which a protein-transduction-domain peptide of HIV TAT protein is fused at the N-terminal (protein) YGRKKRRQRRRMSQSNRELVVDFLSYKLSQKGFSWSNFSDVEENRTEAPEETEPERETPSAINGNPSWHLADSPAVNGATGHSSSLDAREVIPMAAVKQALREAGDEFELRYRRAFSDLTSQLHITPGTAYQSFEQVVNELFRDGVNWGRIVAFFSFGGALCVESVDKEMQVLVSKIASWMATYLNDHLEPWIQENGGWDTFVDLYGNNAAAESRKGQERFNRWFLTGMTVAGVVLLGSLFSRK | – | – | – | – | – | – | – | – | – | – | – | has passed through the cellular membrane and has been incorporated in the cells | markedly inhibited | inhibits the death of chondrocyte more strongly than TAT-Bcl-xL |
| Bcl-xL: wild-type protein expressed from the rat bcl-x gene, SEQ ID NO: 2 (protein, listed as Rattus norvegicus) MSQSNRELVVDFLSYKLSQKGYSWSQFSDVEENRTEAPEETEPERETPSAINGNPSWHLADSPAVNGATGHSSSLDAREVIPMAAVKQALREAGDEFELRYRRAFSDLTSQLHITPGTAYQSFEQVVNELFRDGVNWGRIVAFFSFGGALCVESVDKEMQVLVSRIASWMATYLNDHLEPWIQENGGWDTFVDLYGNNAAAESRKGQERFNRWFLTGMTVAGVVLLGSLFSRK | – | – | – | – | – | – | – | – | survived longer than the control parent cells and the vector-transfected cells | – | – | – | – | – |
